This is an account of results in publication PMC3899027.

The target in one assay is AgR (Rhizobium NT-26). Nature of the assay: SEC; Superose 6; 50 mM Tris-HCl pH 8.0, 30-500 mM NaCl, 1 mM βME; peak positions invariant irrespective of loading concentrations. A general note: SEC sorts molecules by how far they enter the pores of the column.
In assay [1] the target is BphP1 kinase core (BphP1-HK, residues 462-703) (Rhizobium NT-26). The description is as above.
The target of assay [2] is ExsG (wild-type, full-length) (Rhizobium NT-26). Nature of the assay: native MS; nESI-MS and IM-MS; 150 mM ammonium acetate pH 8, 0.1 mM DTT; 30-40 μM (monomer); native, phosphoramidate-treated or AMP-PNP-treated samples.
The target is the same in assay [3]. Nature of the assay: native MS; nESI-MS at raised ionic strength: 400, 600 and 800 mM ammonium acetate pH 8, 0.1 mM DTT; 30-40 μM (monomer); disassembly of the hexamer.
The target is the same in assay [4]. Briefly: native MS; nESI-MS and IM-MS; 150 mM ammonium acetate pH 8, 0.1 mM DTT; 30-40 μM (monomer); native, phosphoramidate-treated or AMP-PNP-treated samples. The source holds these as a separate data set.
Assay [5] shares this target. Nature of the assay: AUC; sedimentation equilibrium; 50 mM Tris-HCl pH 8.0, 250 mM NaCl; six concentrations 0.1-1.5 mg/ml; 7, 11, 16, 24 krpm, 20°C; SEDFIT and SEDPHAT.
Assay [6] has the same target. Briefly: AUC; sedimentation velocity; 50 mM Tris-HCl pH 8.0, 250 mM or 30 mM NaCl; seven concentrations 0.2-2 mg/ml; 40,000 rpm, 20°C; c(s) in SEDFIT.
Assay [7] concerns the target ExsG phosphorylated on Asp62 by phosphoramidate (Rhizobium NT-26). Nature of the assay: native MS; nESI-MS and IM-MS; 150 mM ammonium acetate pH 8, 0.1 mM DTT; 30-40 μM (monomer); native, phosphoramidate-treated or AMP-PNP-treated samples.
The target of assay [8] is ExsG receiver domain (ExsG-REC, residues 1-129) (Rhizobium NT-26). Briefly: SEC; Superose 6; 50 mM Tris-HCl pH 8.0, 30-500 mM NaCl, 1 mM βME; peak positions invariant irrespective of loading concentrations.

Values joined by “and” are separate entries in the source; they are usually repeats but may differ in a detail not shown here. Equal values may be shown once.

The stoichiometry N is the number of molecules, sites or subunits per partner or assembly. In the assay with AgR (Rhizobium NT-26), AgR (natural protein) registered a stoichiometry N of 2.
For the substance “BphP1 kinase core (BphP1-HK, residues 462-703) (domain or fragment)”, in assay [1], the stoichiometry N came to 2.
Consider ExsG (wild-type, full-length) (enzyme), for which the stoichiometry N is 6 in [2]; 2 and 4 in [3]; 2 in assay [4]; 6 in assay [5]; 6 in assay [6].
The substance “ExsG phosphorylated on Asp62 by phosphoramidate (enzyme)” returned a stoichiometry N in assay [7] of 6.
For the substance “ExsG receiver domain (ExsG-REC, residues 1-129) (domain or fragment)”, the stoichiometry N in assay [8] is 2.
